The supplement of paper PMC10567573

B1: KLHDC10 (parent)
chain: CPIIRIPNRFLRGHRPPPARSGHR
B2: ESRRA (parent)
chain: SLPLQDELAFAEDLVLDEEGARAA

Variants of: B1
Assay: protein stability index of a GFP-peptide fusion (GPS, HEK-293T) (PSI 1-6); higher = more stable
Details: c terminus: a fixed tail appended
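Further: lentivirally expressed fusions sorted by FACS into six bins by GFP to DsRed ratio, PSI derived from sequencing read proportions per bin multiplied by bin number.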

Protein stability index, by site and new letter:
R12: Q 2.07 | G 1.8 | K 2.09 | H 2.69 | N 2.27 | M 1.06 | I 2.32 | Y 2.43 | V 2.75 | T 2.02 | F 1.75 | A 1.71 | P 1.63 | D 1.92 | C 1.28 | S 1.9 | W 2.5 | L 2.25 | E 2.47
I3: M 2.09 | L 2.15 | C 1.78 | H 2.16 | K 2.81 | Y 1.6 | S 2.56 | N 3.74 | P 4.2 | D 2.16 | T 2.36 | R 2.62 | E 3.25 | A 1.56 | V 1.71 | F 1.47
F10: T 2.11 | G 1.81 | R 2.65 | L 2.48 | C 2.48 | K 1.71 | H 2.25 | I 2.46 | P 1.45 | V 1.4 | A 2.85 | Q 2.63 | E 1.71 | M 1.82 | S 2.12 | Y 1.8 | W 2.38
R9: G 1.53 | D 2.1 | Q 2.47 | V 2.43 | M 1.42 | K 1.37 | P 3.47 | A 1.61 | S 2.12 | Y 1.71 | N 2.01 | C 2.48 | H 2.32 | L 2.36 | T 1.46 | F 2.94
P2: A 3.75 | I 2.6 | S 1.31 | D 2.32 | G 2.41
H14: L 1.32 | K 2.57 | M 1.87 | A 1.96 | S 2.07 | T 1.74 | E 2.22 | R 1.76 | C 1.48 | I 1.87 | F 1.83 | W 2.89 | G 1.46 | D 1.69 | N 1.89 | V 2.46 | Y 1.33 | P 2.15
C1: F 2.15 | Y 1.97 | T 3.29 | Q 4.42 | P 3.87 | I 3.59 | R 3.57 | L 2.68 | K 3.56 | N 3.73 | E 3.76 | A 4.28 | D 2.89 | S 3.41 | W 1.59 | H 2.91 | M 3.21
R15: V 1.84 | I 1.28 | F 1.43 | M 1.84 | T 1.73 | N 2.3 | C 1.68 | W 1.47 | S 1.69 | Y 1.51 | A 1.3 | E 1.92 | K 2.19 | G 1.69 | Q 2.44 | D 2.11 | L 1.05
P7: H 3.62 | S 3.13 | Y 2.11 | C 1.89 | G 3.71 | D 2.91 | A 2.38 | M 3.29 | I 2.39 | W 3.51 | F 2.28 | V 1.86 | R 3.66 | K 2.7 | N 2.6 | T 2.23 | E 1.57 | Q 3.04 | L 2.25
P18: H 2.37 | I 2.17 | D 1.49 | E 1.78 | L 1.47 | W 1.85 | C 1.82 | R 1.63 | T 1.92 | V 2.27 | N 2.43 | K 2.5 | F 1.62 | M 1.74 | Q 1.78 | G 2.95 | A 1.51 | S 2.37 | Y 1.91
G13: E 1.38 | P 1.48 | R 1.74 | F 1.81 | Y 1.88 | T 2.65 | W 2 | M 1.9 | N 2.2 | C 1.53 | H 1.98 | L 1.85 | I 2.04 | Q 2.36 | K 1.9 | A 2.21 | D 1.55
P17: W 1.97 | V 3.32 | R 2.34 | M 1.8 | A 2.28 | Q 1.57 | E 1.93 | C 1.21 | Y 2.55 | H 1.76 | T 1.64 | K 2.98 | D 1.63 | I 1.93 | S 2.27 | G 2.09 | F 1.81 | N 2.2 | L 2.28
L11: M 2.89 | G 2.3 | D 1.42 | Y 2 | W 1.7 | Q 1.35 | V 2.83 | R 2.54 | E 1.31 | H 1.69 | T 1.96 | K 3.08 | S 2.46 | C 1.4 | F 1.84
A19: D 2.95
R5: A 3.57 | D 4.21 | P 3.89 | Q 3.54 | W 2.73 | F 2.62 | I 2.81 | Y 2.51 | N 4.4 | K 3.59 | E 5.03 | G 3.42 | L 1.55 | T 3.81 | M 1.6 | V 2.6 | H 3.85
N8: S 2.44 | E 2.15 | T 2.52 | F 1.81 | H 2.69 | Q 1.3 | D 2.15 | G 1.38 | C 1.94 | A 1.46 | L 2.21 | K 2.42 | Y 2.07 | R 2.54 | I 2.36 | V 2.79 | W 2.59 | M 1.97
P16: V 1.23 | F 1.9 | S 2.12 | Y 1.31 | Q 2.1 | N 2.56 | E 1.92 | K 3.27 | R 1.2 | L 1.85 | C 2.5 | G 1.42 | H 1.92 | T 2.38 | D 1.72 | I 1.73 | M 2.33
I4: Q 3.94 | S 3.22 | D 4.49 | A 2.7 | L 2.4 | G 3.77 | Y 3.02 | R 4.37 | K 3.06 | F 2.46 | C 2.31 | M 1.86 | N 4.38 | P 4.21 | T 3.23 | W 3.12 | V 2.42 | E 4.56
I6: P 4.35 | S 2.04 | M 2.64 | K 3.37 | Y 4.09 | A 3.29 | H 4.75 | W 4.13 | N 4.01 | F 4.26 | D 4.25 | E 3.98 | V 2.77 | G 3.96 | C 2.4 | Q 2.77 | L 4.07 | R 3.69

Variants of: B2
Assay: as above
Details: c terminus: a fixed tail appended

Protein stability index, by site and new letter:
A24: M 2.97 | I 2.92 | W 2.74 | N 2.28 | E 3.5 | S 2.82 | P 3.21 | C 2.94 | T 3.94 | L 2.75 | D 3.71 | Q 3.05 | F 2.14 | V 3.06 | G 3.22 | Y 3 | R 2.8 | H 3.66 | K 2.96
A23: R 2.83 | V 3.21 | N 3.21 | T 3.08 | K 2.65 | W 2.44 | Y 2.62 | Q 3.19 | L 2.56 | M 2.43 | S 3.42 | P 3.35
